From publication PMC3643604

Target: MED25 ACID/PTOV domain (purified) (human)
Test: ITC

Kd: 543 nM | stoichiometry N: 1
Substance: ERM 38–68 peptide (from UniProt P41161 38-68)
